Consider 20 molecules from patent publication US20260116987A1 (Gilead, published 2026).

Positions count from the first letter of the chain named.

The target of assay [1] is T1, CCR8-NT.MBP (CCR8 N-terminus peptide aa 1-35 fused with maltose binding protein). Nature of the assay: ForteBio Octet, antibody captured on AHC biosensors, CCR8-NT.MBP as analyte. In general terms: BLI is a label-free optical method that tracks binding on a fibre tip over time.
Assay [2] deals with T2, Human CCR8 (C-C chemokine receptor type 8) expressed on CHO-S cells (human, UniProt P51685 1-355).
T2 construct: also called huCCR8; human CCR8-expressing CHO-S cells
The assay is described as follows: KinExA, on-cell affinity. (In general: In KinExA the mixture passes briefly over coated beads that capture the unbound partner.)

Assay [3] deals with T3, Human CCR4 expressed on CHO-S cells (human, UniProt P51679 1-360).
T3 construct: whole, on cells; also called CCR4-expressing CHO-S cells
T3 sequence (looked up): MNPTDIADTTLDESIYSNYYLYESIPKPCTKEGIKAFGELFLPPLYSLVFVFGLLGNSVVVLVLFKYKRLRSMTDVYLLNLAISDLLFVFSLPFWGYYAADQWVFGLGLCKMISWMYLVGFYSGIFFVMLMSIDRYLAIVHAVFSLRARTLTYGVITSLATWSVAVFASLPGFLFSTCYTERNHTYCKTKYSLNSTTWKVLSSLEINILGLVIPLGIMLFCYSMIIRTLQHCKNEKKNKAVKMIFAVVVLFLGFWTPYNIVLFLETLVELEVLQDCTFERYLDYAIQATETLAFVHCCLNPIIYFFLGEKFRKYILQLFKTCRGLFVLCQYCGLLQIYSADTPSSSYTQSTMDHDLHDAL
The assay is described as follows: flow cytometry.

In assay [4] the target is T2, Human CCR8 (C-C chemokine receptor type …). The assay is described as follows: flow cytometry, human CCR8-overexpressing against parental CHO-S cells. On the procedure:
The first category of variant (single substitution mutation in the CDR H3) included variants in which each amino acid residue of the heavy chain CDR 3 (i.e., , CDR H3) was iteratively substituted with an alanine residue.
CCR8 binding was determined using flow cytometry according to the same methods used in Example 4, Briefly, antibodies were screened for specific binding to human CCR8 by flow cytometry using human CCR8-overexpressing and parental CHO—S cell line. Antibodies specifically binding to human CCR8 were also tested for binding to CCR4 by flow cytometry.
In general terms: In flow cytometry, cells or beads pass a laser one at a time.

In assay [5] the target is T1, CCR8-NT.MBP (CCR8 N-terminus peptide aa …). Nature of the assay: ForteBio Octet, antibody at 10 µg/ml captured on AHC biosensors, 300 nM CCR8-NT.MBP as analyte. From the text: (amino acids 406-440 of SEQ ID NO: 128), Amino acids 1-364 of SEQ ID NO: 128 represent the maltose binding protein.
The target of assay [6] is T2, Human CCR8 (C-C chemokine receptor type …). The assay is described as follows: cell-based or functional assay.
The target of assay [7] is T3, Human CCR4 expressed on CHO-S cells. The assay is described as follows: flow cytometry (PE-A), human CCR4-expressing CHO-S cells against parental CHO-S cells; antibody concentration not given.

T2 sequence (P51685 whole entry): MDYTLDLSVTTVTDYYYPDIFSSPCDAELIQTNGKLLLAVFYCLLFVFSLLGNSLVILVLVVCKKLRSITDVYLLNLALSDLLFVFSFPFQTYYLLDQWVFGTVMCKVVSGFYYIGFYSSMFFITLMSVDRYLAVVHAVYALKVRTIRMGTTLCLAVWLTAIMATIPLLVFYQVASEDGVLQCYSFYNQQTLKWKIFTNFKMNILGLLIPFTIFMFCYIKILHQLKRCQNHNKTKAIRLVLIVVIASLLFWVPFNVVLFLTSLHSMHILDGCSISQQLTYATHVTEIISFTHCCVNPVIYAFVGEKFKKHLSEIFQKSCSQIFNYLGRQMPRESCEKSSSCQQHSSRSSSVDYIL

B1: 7B16-H2.001 (CDR H2 swapped mutant of 7-B16) (antibody, V domains shown)
VH: EVQLVESGGGLVQPKGSLKLSCAASGFTFNTYAMNWVRQAPGKGLEWVARIRSKANSYATAYAASVKDRFTISRDDSQSMLYLQMNNLKTEDTAMYYCVRGLLRYRFFDVWGAGTTVTVSS
VL: DIVMTQAEPSVPVTPGESISISCRSSKSLLHSNGNTYLYWFLQRPGQSPQLLIYRMSNLASGVPDRFSGSGSGTAFTLRISRVEAEDVGVYYCMQHLEYPFTFGGGTKLEIKR
notes: also called CDR swapped variant H2
As to B1, the “Octet Response (nm)” value in assay [1] came out at 0.299 nm.

B2: Humanized 7-B16.001 (antibody, human IgG1, kappa, V domains shown)
VH: EVQLVESGGGLVQPGGSLKLSCAASGFTFNTYAMNWVRQASGKGLEWVGRIRSKSNNYATYYADSVKDRFTISRDDSKNTAYLQMNSLKTEDTAVYYCVRGLLRYRFFDVWGQGTTVTVSS
VL: B1 VL with A7S, E8P, P9L, V11L, S18P, I19A, R44K, A75D, R79K, L109V
notes: Humanized
For B2, in assay [2], binding was characterised by a dissociation constant (Kd) of 0.0159 nM; the koff – broadly, the rate constant with which the complex falls apart – was determined as 7.93e-05 s⁻¹; the kon (commonly the second-order rate constant of association) came to 4.99e+06 M⁻¹ s⁻¹. For the same molecule, the binding result in assay [3] is “no binding”.

B3: 7B16-L2.001 (CDR L2 swapped mutant of 7-B16) (antibody, V domains shown)
VH: B1 VH with A55S, S57N, A61Y, A64D
VL: B1 VL with R55L, M56G, L59R
notes: also called CDR swapped variant L2
B3: the “Octet Response (nm)” value in assay [1] came to 0.205 nm.

B4: 7B16.009 (CDR H3 alanine scan variant of 7-B16) (antibody, human IgG1, kappa, V domains shown)
VH: B1 VH with A55S, S57N, A61Y, A64D, R106A
VL: B1 VL
Consider B4, for which the “Flow (fold over parent)” value in assay [4] is 10 fold. Further, the “Octet (nm shift)” value in assay [5] was found to be 0.303 nm. The “ADCC (Fold Induction)” value in assay [6] was 19.8 fold.

B5: 7B16.008 (CDR H3 alanine scan variant of 7-B16) (antibody, human IgG1, kappa, V domains shown)
VH: B1 VH with A55S, S57N, A61Y, A64D, Y105A
VL: B1 VL
For the molecule B5, in assay [4], the “Flow (fold over parent)” value came to 9 fold. Besides, the “Octet (nm shift)” value in assay [5] is 0.436 nm. The “ADCC (Fold Induction)” value in assay [6] amounted to 24.8 fold.

B6: 7B16.013 (CDR H3 alanine scan variant of 7-B16) (antibody, human IgG1, kappa, V domains shown)
VH: B1 VH with A55S, S57N, A61Y, A64D, V110A
VL: B1 VL
With B6, the “Flow (fold over parent)” value in assay [4] is 9 fold. Besides, in assay [5], the “Octet (nm shift)” value amounted to 0.383 nm. Moreover, the “ADCC (Fold Induction)” value in assay [6] turned out to be 25.9 fold.

B7: 7B16.004 (CDR H3 alanine scan variant of 7-B16) (antibody, human IgG1, kappa, V domains shown)
VH: B1 VH with A55S, S57N, A61Y, A64D, G101A
VL: B1 VL
In the case of B7, the “Flow (fold over parent)” value in assay [4] turned out to be 6 fold. Moreover, the “Octet (nm shift)” value in assay [5] amounted to 0.221 nm. For the same molecule, the “ADCC (Fold Induction)” value in assay [6] is 19.5 fold.

B8: Humanized 7-B16.033 (antibody, human IgG1, kappa, V domains shown)
VH: B2 VH with G16R, K19R, A23T, N30A, S41P, G49A, N79S, T80I, A81L
VL: B1 VL with A7S, E8P, P9L, V11L, S18P, I19A, R44K, A75D, R79K, L109V
notes: Humanized
Consider B8, for which, in assay [2], the affinity, expressed as Kd, was 0.0746 nM; the koff amounted to 0.000391 s⁻¹; the kon was 5.25e+06 M⁻¹ s⁻¹. Further, the binding result in assay [3] is on record as “no binding”.

B9: 7B16-H3C4.001 (CDR H3 combo mutant of 7-B16) (antibody, V domains shown)
VH: B1 VH with A55S, S57N, A61Y, A64D, V99A, Y105A, V110A
VL: B1 VL
As to B9, the “Octet Response (nm)” value in assay [1] stood at 0.404 nm.

B10: 7B16.010 (CDR H3 alanine scan variant of 7-B16) (antibody, human IgG1, kappa, V domains shown)
VH: B1 VH with A55S, S57N, A61Y, A64D, F107A
VL: B1 VL
For the molecule B10, in assay [4], the “Flow (fold over parent)” value came to 4 fold. In assay [5], the “Octet (nm shift)” value came to 0.155 nm. Also, the “ADCC (Fold Induction)” value in assay [6] was determined as 1.36 fold.

B11: 7B16.002 (CDR H3 alanine scan variant of 7-B16) (antibody, human IgG1, kappa, V domains shown)
VH: B1 VH with A55S, S57N, A61Y, A64D, V99A
VL: B1 VL
In the case of B11, in assay [4], the “Flow (fold over parent)” value worked out at 8 fold. The “Octet (nm shift)” value in assay [5] is 0.469 nm. Moreover, the “ADCC (Fold Induction)” value in assay [6] was 22.9 fold.

B12: 7B16.006 (CDR H3 alanine scan variant of 7-B16) (antibody, human IgG1, kappa, V domains shown)
VH: B1 VH with A55S, S57N, A61Y, A64D, L103A
VL: B1 VL
Regarding B12, the “Flow (fold over parent)” value in assay [4] is 8 fold. Also, in assay [5], the “Octet (nm shift)” value was determined as 0.22 nm. Also, the “ADCC (Fold Induction)” value in assay [6] turned out to be 14.1 fold.

B13: 7B16-H3C3.001 (CDR H3 combo mutant of 7-B16) (antibody, V domains shown)
VH: B1 VH with A55S, S57N, A61Y, A64D, Y105A, V110A
VL: B1 VL
For the molecule B13, the “Octet Response (nm)” value in assay [1] was 0.376 nm.

B14: 7B16.005 (CDR H3 alanine scan variant of 7-B16) (antibody, human IgG1, kappa, V domains shown)
VH: B1 VH with A55S, S57N, A61Y, A64D, L102A
VL: B1 VL
For the molecule B14, the “Flow (fold over parent)” value in assay [4] amounted to 9 fold. Also, the “Octet (nm shift)” value in assay [5] worked out at 0.296 nm. In addition, the “ADCC (Fold Induction)” value in assay [6] was determined as 20 fold.

B15: 7B16-H3C2.001 (CDR H3 combo mutant of 7-B16) (antibody, V domains shown)
VH: B1 VH with A55S, S57N, A61Y, A64D, V99A, V110A
VL: B1 VL
For B15, the “Octet Response (nm)” value in assay [1] is 0.357 nm.

B16: 7B16-H3C1.001 (CDR H3 combo mutant of 7-B16) (antibody, V domains shown)
VH: B1 VH with A55S, S57N, A61Y, A64D, V99A, Y105A
VL: B1 VL
Consider B16, for which the “Octet Response (nm)” value in assay [1] worked out at 0.431 nm.

B17: 1-K16 (mouse hybridoma antibody) (antibody, mouse IgG1, kappa)
heavy: EVQLVETGGGLVQPKGSLKLSCAASGFTFNINAMNWVRQAPGKGLEWVARIRSKSNNYATYYADSVKDRFTISRDDSQSMLYLQMNNLKTEDTAMYYCVRGGYGSSPYDMDYWGQGTSVTVSSAKTTPPSVYPLAPGSAAQTNSMVTLGCLVKGYFPEPVTVTWNSGSLSSGVHTFPAVLESDLYTLSSSVTVPSSPRPSETVTCNVAHPASSTKVDKKIVPRDCGCKPCICTVPEVSSVFIFPPKPKDVLTITLTPKVTCVVVDISKDDPEVQFSWFVDDVEVHTAQTQPREEQFNSTFRSVSELPIMHQDWLNGKEFKCRVNSAAFPAPIEKTISKTKGRPKAPQVYTIPPPKEQMAKDKVSLTCMITDFFPEDITVEWQWNGQPAENYKNTQPIMNTNGSYFVYSKLNVQKSNWEAGNTFTCSVLHEGLHNHHTEKSLSHSPG
light: DIVMTQAAPSVPVTPGESVSISCRSSKSLLHSNGNTYLYWFLQRPGQSPQLLIYRMSNLASGVPDRFSGSGSGTAFTLRISRVEAEDVGVYYCMQHLEYPFTFGAGTKLELKRADAAPTVSIFPPSSEQLTSGGASVVCFLNNFYPKDINVKWKIDGSERQNGVLNSWTDQDSKDSTYSMSSTLTLTKDEYERHNSYTCEATHKTSTSPIVKSFNRNEC
In the case of B17, the binding result in assay [7] was “no binding”.

B18: 19-O07 (mouse hybridoma antibody) (antibody, human IgG1)
heavy: EVQLQQSVAELVRPGASVKLSCTASGFNIKNTQMHWVKQRPEQGLEWIGRIDPANGNTKYAPKFQGKATITGDTSSNTAYLQLSSLTSEDTAIYYCARFDYYYGSGDYAMDYWGQGTSVTVSSTTTAPSVYPLVPGCSDTSGSSVTLGCLVKGYFPEPVTVKWNYGALSSGVRTVSSVLQSGFYSLSSLVTVPSSTWPSQTVICNVAHPASKTELIKRIEPRIPKPSTPPGSSCPPGNILGGPSVFIFPPKPKDALMISLTPKVTCVVVDVSEDDPDVHVSWFVDNKEVHTAWTQPREAQYNSTFRVVSALPIQHQDWMRGKEFKCKVNNKALPAPIERTISKPKGRAQTPQVYTIPPPREQMSKKKVSLTCLVTNFFSEAISVEWERNGELEQDYKNTPPILDSDGTYFLYSKLTVDTDSWLQGEIFTCSVVHEALHNHHTQKNLSRSP
light: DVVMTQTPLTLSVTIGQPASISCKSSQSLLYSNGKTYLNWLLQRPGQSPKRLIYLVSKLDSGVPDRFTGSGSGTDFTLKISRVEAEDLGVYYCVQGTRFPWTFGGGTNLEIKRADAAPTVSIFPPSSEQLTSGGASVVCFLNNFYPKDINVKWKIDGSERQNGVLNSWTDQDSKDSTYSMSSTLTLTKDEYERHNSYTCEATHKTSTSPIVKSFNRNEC
notes: also called 19-007
For B18, the binding result in assay [7] is recorded as “no binding”.

B19: Humanized 1-K17.015 (antibody, human IgG1, kappa, V domains shown)
VH: EVQLVQSGAEVKKPGASVKVSCKASGYTFTSYNMHWVRQAPGQRLEWIGAIYPGQGDTSYNQKFKGRATLTADKSASTAYMELSSLRSEDTAVYYCARKGGTPFAYWGQGTLVTVSS
VL: DVVMTQSPLSLPVTLGQPASISCRSSQSLVHSNAQTYLYWYQQRPGQSPRLLIYKVSNRFSGVPDRFSGSGSGTDFTLKISRVEAEDVGVYFCSQSTHVPYTFGQGTKLEIKR
notes: Humanized with hotspot correction
As for B19, in assay [2], the Kd (as a rule, the free concentration of one partner at which half of the binding sites on the other are occupied at equilibrium, for simple one-to-one binding) amounted to 0.0145 nM; the koff was 0.000142 s⁻¹; the kon stood at 9.78e+06 M⁻¹ s⁻¹. Further, in assay [3], the binding result is recorded as “no binding”.

B20: Humanized 1-K17.044 (antibody, human IgG1, kappa, V domains shown)
VH: B19 VH with R44G, Q55A, A76T
VL: B19 VL with Q35A
notes: as for B19
In assay [2], B20 came in with a Kd of 0.00805 nM, a koff of 6.67e-05 s⁻¹ and a kon of 8.29e+06 M⁻¹ s⁻¹. Also, the binding result in assay [3] was “no binding”.
